Assays:
P. aeruginosa = experiment: MIC, modified CLSI broth microdilution in CAA medium without or with […] human serum (Table 4); type: cell-based, Pseudomonas aeruginosa; as to CAA/HuS MIC: CAA supplemented with 2.5% human serum
Excerpt: 2015. […] Clinical and Laboratory Standards Institute, Wayne, Pa.

[1] = test system: Pseudomonas aeruginosa strain CFS-1292 (meropenem resistant); details: strain CFS-1292; no added cations
Description: The activity of selected GN lysins and constructs in the presence of divalent cations was evaluated, and the impact of divalent cations at physiological concentrations was examined in the MIC assay format.

[2] = test system: P. aeruginosa strain WC-453; experiment: Time-kill assay in HEPES or CAA with 25% human serum (Tables 7, 8); type: cell-based, Pseudomonas aeruginosa
Description: Exponential phase bacteria were then pelleted and resuspended in 1/5 culture volume of 25 mM HEPES, pH 7.4 before a final adjustment to an optical density corresponding to a McFarland value of 0.5. […] All treatments were incubated at 37° C. with aeration. At time points before the addition of lysin (or buffer control) and at 1 hour and 3 hours intervals thereafter, culture samples were removed for quantitative plating on CAA agar plates.

[3] = test system: biofilms formed by P. aeruginosa strain ATCC 17646; details: strain ATCC 17646 biofilm
Description: (§1) Biofilms are then washed and treated with e.g., a 2-fold dilution series of the lysin in TSBg at e.g., 37° C. for 24 hours. After treatment, wells are washed, air-dried at e.g., 37° C. and stained with e.g., 0.05% crystal violet for 10 minutes.

P. aeruginosa isolates = experiment: MIC against a range of isolates in CAA + […] human serum (Table 11); type: cell-based, Pseudomonas aeruginosa
[4] = test system: Pseudomonas aeruginosa strain CFS-1292 (meropenem resistant); experiment: MIC in 25% CAA alone, with […] human serum or […] SURVANTA (Table 13); type: cell-based
Description: (§2) Materials and methods: MICs were determined by broth microdilution in media supplemented with human serum and pulmonary surfactant ([…]®; Myoderm Clinical Supplies). Minimal biofilm eradicating concentrations (MBECs) were determined using standard methods. […] Fluorescence microscopy was performed after LIVE/DEAD staining (ThermoFisher) and TEM was performed.

[5] = test system: Pseudomonas aeruginosa biofilm; experiment: MBEC in CAA supplemented with […] human serum (Table 14); type: cell-based
Description: as §1, §2

[6] = test system: outer membrane of P. aeruginosa (CFS 1292); experiment: N-phenyl-1-napthylamine (NPN) uptake assay, outer membrane destabilization (Table 15); type: cell-based, Pseudomonas aeruginosa; details: NPN fluorescence, buffer = 100, lysin 100 μg/well
Description: The ability of gram-negative lysins to destabilize the outer membrane of P. aeruginosa was evaluated through the use of an N-phenyl-1-napthylamine (NPN) uptake assay. […] NPN was added to a final concentration of […]. […] Changes in fluorescence were recorded (excitation 1=350 nm; emission 1=420 nm) over two hours.

P. aeruginosa strains = experiment: Checkerboard synergy with meropenem in 25% CAA and […] human serum (Table 16); type: cell-based, Pseudomonas aeruginosa; details: for FICI value (Run #1), with meropenem / FICI value (Run #2), with meropenem: 25% CAA and […] human serum
[7] = test system: carbapenem-resistant P. aeruginosa strains; experiment: Resensitization of carbapenem-resistant strains, combinations with imipenem or meropenem (Tables 18-22); type: cell-based, Pseudomonas aeruginosa; details: for FICI: isolate WC-452
Description: Such resensitization may be determined by combining the present lysins or lysin-AMP polypeptide constructs with an antibiotic in a checkerboard assay as described herein. Antibiotic-resistant bacteria, such as carbapenem-resistant P. aeruginosa, are added to the lysin or lysin-AMP polypeptide construct combination. […] See Clinical and Laboratory Standards Institute (CLSI), CLSI. […] M100 Performance Standards for Antimicrobial Susceptibility Testing; 29th Edition. Clinical and Laboratory Standards Institute, Wayne, Pa., which is herein incorporated by reference in its entirety.
Up to seven carbapenem-resistant isolates were assessed. […] See Clinical and Laboratory Standards Institute (CLSI), CLSI. […] M100 Performance Standards for Antimicrobial Susceptibility Testing; 29th Edition. Clinical and Laboratory Standards Institute, Wayne, Pa.

B1: GN351: lysin-AMP construct: TAGGTAGG linker and amurin peptide Ecp2 C-terminal to GN316 lysin (SEQ ID NO: 32) (protein)
chain: MAILKIGSKGLEVKNLQTSLNKIGFNLVADGIFGKATDNAVRAVQAGAGLVVDGIAGPKTMYAIRNAGESHQDHLTEADLIDAARELSVDLASIKAVNQVESRGTGFTKSGKIKTLFERHIMYKKLNAKFGQAKANALAQLYPTLVNAKAGGYTGGDAELERLHGAIAIDKDCAYESASYGLFQIMGFNCVICGYDNAEEMFNDFLTGERAQLMAFVKFIKADANLWKALKDKNWAEFARRYNGPAYAQNQYDTKLAAAYKSFSTAGGTAGGARSRRRMSKRSSRRSFRKYAKSHKKNFKARSMRGGIRL
P. aeruginosa; CAA medium, no human serum
  CAA MIC: 8000 µg/mL
P. aeruginosa; CAA supplemented with […] human serum
  CAA/HuS MIC: 125 µg/mL
[1]
  MIC in 25% CAA: 1 µg/mL
[2]; 10 μg/mL, enumerated lysins in CAA/HuS, general statement for HEPES and CAA/HuS
  bactericidal activity (CFU decrease of 3-Log10, 3 hours after the addition of lysin): bactericidal activity
[2]; CAA + 25% human serum, lysin 10 μg/ml, 1 hr, WC-453
  CAA/HuS (Log10 CFU/mL), 1 hr: 4.6 Log10 CFU/mL
[2]; CAA + 25% human serum, lysin 10 μg/ml, 3 hr, WC-453
  CAA/HuS (Log10 CFU/mL), 3 hr: <3.7 Log10 CFU/mL
[3]
  MBEC: 1 µg/mL
P. aeruginosa isolates; Tables 11 and 12
  activity against P. aeruginosa isolates in human serum or SURVANTA: active against a variety of P. aeruginosa isolates
P. aeruginosa isolates; strain CFS 1109 (ATCC 17646)
  MIC, CAA + […] Human Serum: 1 µg/mL
P. aeruginosa isolates; strain CFS 1292
  MIC, CAA + […] Human Serum: 1 µg/mL
P. aeruginosa isolates; strain CFS1539 (PA1)
  MIC, CAA + […] Human Serum: 0.5 µg/mL
P. aeruginosa isolates; strain CFS 1540 (PA2)
  MIC, CAA + […] Human Serum: 0.5 µg/mL
P. aeruginosa isolates; strain CFS 1541 (PA3)
  MIC, CAA + […] Human Serum: 0.5 µg/mL
P. aeruginosa isolates; strain CFS 1557 (PA19)
  MIC, CAA + […] Human Serum: 4 µg/mL
P. aeruginosa isolates; strain CFS 1558 (PA20)
  MIC, CAA + […] Human Serum: 1 µg/mL
P. aeruginosa isolates; strain CFS 1559 (PA21)
  MIC, CAA + […] Human Serum: 2 µg/mL
P. aeruginosa isolates; strain CFS 1560 (PA22)
  MIC, CAA + […] Human Serum: 2 µg/mL
P. aeruginosa isolates; strain CFS 1561 (PA23)
  MIC, CAA + […] Human Serum: 2 µg/mL
P. aeruginosa isolates; strain CFS 1562 (PA24)
  MIC, CAA + […] Human Serum: 2 µg/mL
P. aeruginosa isolates; strain CFS 1596 (PA26)
  MIC, CAA + […] Human Serum: 1 µg/mL
P. aeruginosa isolates; strain CFS 1597 (PA27)
  MIC, CAA + […] Human Serum: 0.5 µg/mL
P. aeruginosa isolates; strain CFS 1669 (PA41)
  MIC, CAA + […] Human Serum: 1 µg/mL
P. aeruginosa isolates; strain CFS 1674 (PA46)
  MIC, CAA + […] Human Serum: 1 µg/mL
P. aeruginosa isolates; strain CFS 1675 (PA47)
  MIC, CAA + […] Human Serum: 0.5 µg/mL
P. aeruginosa isolates; strain CFS 1766 (ATCC 27853)
  MIC, CAA + […] Human Serum: 2 µg/mL
[4]
  MIC in […] Survanta: 4 µg/mL
  MIC in human serum ([…]) in CAA: 0.0625 µg/mL
  activity in human serum and pulmonary surfactant: active in human serum and pulmonary surfactant
[4]; media alone
  25% CAA MIC: 1
[5]
  MBEC in CAA supplemented with […] human serum: 0.5 µg/mL
[6]; 5 minutes
  % RFU: 381 % RFU
[6]; 10 minutes
  % RFU: 406 % RFU
[6]; 20 minutes
  % RFU: 407 % RFU
[6]; 40 minutes
  % RFU: 386 % RFU
[6]; 60 minutes
  % RFU: 383 % RFU
[6]; 100 minutes
  % RFU: 338 % RFU
P. aeruginosa strains; FICI less than or equal to 0.5 = potent synergy
  synergy with meropenem: exhibited synergy with meropenem
P. aeruginosa strains; strain CFS 1292
  FICI value (Run #1), with meropenem: 0.1875
  FICI value (Run #2), with meropenem: 0.219
P. aeruginosa strains; strain CFS 1557 (PA19)
  FICI value (Run #1), with meropenem: 0.25
  FICI value (Run #2), with meropenem: 0.292
P. aeruginosa strains; strain CFS 1558 (PA20)
  FICI value (Run #1), with meropenem: 0.1562
  FICI value (Run #2), with meropenem: 0.177
P. aeruginosa strains; strain CFS 1559 (PA21)
  FICI value (Run #2), with meropenem: 0.177
P. aeruginosa strains; strain CFS 1560 (PA22)
  FICI value (Run #2), with meropenem: 0.323
P. aeruginosa strains; strain CFS 1561 (PA23)
  FICI value (Run #2), with meropenem: 0.240
P. aeruginosa strains; strain CFS 1562 (PA24)
  FICI value (Run #2), with meropenem: 0.177
P. aeruginosa strains; strain CFS 1766 (ATCC 27853)
  FICI value (Run #2), with meropenem: 0.109
[7]; imipenem (IPM) and meropenem (MEM), carbapenem-resistant isolates
  resensitization to carbapenems in synergistic combinations: reductions of IPM and MEM MICS to below breakpoint values
[7]; lysin + imipenem
  FICI: 0.156
[7]; lysin + meropenem
  FICI: 0.188
[7]; vs. WC-452 (Table 22)
  Antibiotic MIC / Lysin MIC, Alone: 1

— patent publication US20210324359A1, “USE OF GRAM-NEGATIVE LYSIN-ANTIMICROBIAL PEPTIDE (AMP) POLYPEPTIDE CONSTRUCTS IN TREATING ENDOCARDITIS” (priority 2020, published 2021)
